Our source for the total ion current (normalized to TIA1 = 1000) values is patent publication US20190142860A1, “NUCLEIC ACID BASED TIA-1 INHIBITORS” (Aquinnah Pharmaceuticals, Inc., priority 2015, published 2019).

Assay [1] deals with Nucleolysin TIA-1 (endogenous mouse TIA1) (mouse) (UniProt P52912). Put plainly: TIA1 IP-MS, WT1 cortex.
The target is the same in assay [2]. Nature of the assay: TIA1 IP-MS, WT2 cortex.
Assay [3] shares this target. Put plainly: TIA1 IP-MS, WT3 cortex.
For assay [4] the target is unchanged. Nature of the assay: TIA1 IP-MS, tau KO 1 cortex.
Assay [5] has the same target. Put plainly: TIA1 IP-MS, tau KO 2 cortex.
The target is the same in assay [6]. Put plainly: TIA1 IP-MS, tau KO 3 cortex.

Chain of UniProt P52912 (P52912 whole entry): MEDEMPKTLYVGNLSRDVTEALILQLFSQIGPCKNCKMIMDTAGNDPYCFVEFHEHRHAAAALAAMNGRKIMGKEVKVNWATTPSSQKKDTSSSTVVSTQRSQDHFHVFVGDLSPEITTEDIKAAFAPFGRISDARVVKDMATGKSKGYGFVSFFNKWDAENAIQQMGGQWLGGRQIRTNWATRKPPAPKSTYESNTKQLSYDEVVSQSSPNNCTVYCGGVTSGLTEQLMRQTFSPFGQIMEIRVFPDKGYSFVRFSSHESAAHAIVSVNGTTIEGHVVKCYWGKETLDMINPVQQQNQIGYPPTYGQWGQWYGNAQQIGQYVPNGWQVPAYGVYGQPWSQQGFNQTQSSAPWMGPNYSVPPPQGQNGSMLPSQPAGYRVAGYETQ

For the substance “Poly(rC)-binding protein 1 (from UniProt P60335 1-356)”, the total ion current (normalized to TIA1 = 1000) in assay [1] is 0; in assay [2] it was 19.2; in assay [3], 30.2; in assay [4], 0; in assay [5], 58.5; in assay [6] it was 0.
Consider “Polyadenylate-binding protein 1 (from UniProt P29341 1-636)”, for which the total ion current (normalized to TIA1 = 1000) was 0 in assay [1]; 50.7 in assay [2]; 0 in assay [3]; 0 in assay [4]; 86.4 in assay [5]; 0 in assay [6].
Turning to “Probable ATP-dependent RNA helicase DDX17 (from UniProt Q501J6 1-650)”, the total ion current (normalized to TIA1 = 1000) in assay [1] came to 0; in assay [2], 135; in assay [3], 0; in assay [4], 0; in assay [5], 34.1; in assay [6], 0.
Consider Prohibitin (from UniProt P67778 2-272), for which the total ion current (normalized to TIA1 = 1000) in assay [1] was found to be 0; in assay [2], 172; in assay [3], 37.7; in assay [4], 0; in assay [5] it was 137; in assay [6], 0.
Regarding “Prohibitin-2 (from UniProt O35129 2-299)”, the total ion current (normalized to TIA1 = 1000) in assay [1] worked out at 0; in assay [2] it was 440; in assay [3], 171; in assay [4] it was 0; in assay [5], 292; in assay [6], 0.
Consider “Proteasome subunit alpha type-4 (from UniProt Q9R1P0 1-261)”, for which the total ion current (normalized to TIA1 = 1000) in assay [1] stood at 10.5; in assay [2], 0; in assay [3], 0; in assay [4], 0; in assay [5] it was 0; in assay [6] it was 0.
Consider Protein Golgb1, for which the total ion current (normalized to TIA1 = 1000) in assay [1] amounted to 0; in assay [2], 0; in assay [3] it was 259; in assay [4], 0; in assay [5] it was 0; in assay [6] it was 0.
As to “Protein NipSnap homolog 1 (from UniProt O55125 36-284)”, the total ion current (normalized to TIA1 = 1000) in assay [1] was 0; in assay [2], 219; in assay [3] it was 0; in assay [4], 0; in assay [5], 27; in assay [6], 0.
On to “Protein NipSnap homolog 2 (from UniProt O55126 28-281)”, for which the total ion current (normalized to TIA1 = 1000) in assay [1] turned out to be 0; in assay [2] it was 81; in assay [3] it was 0; in assay [4], 0; in assay [5], 0; in assay [6] it was 0.
With “Protein disulfide-isomerase A3 (from UniProt P27773 25-505)”, the total ion current (normalized to TIA1 = 1000) in assay [1] amounted to 0; in assay [2] it was 69.2; in assay [3] it was 13.8; in assay [4], 0; in assay [5], 36; in assay [6], 0.
Turning to “Protein kinase C and casein kinase substrate in neurons protein 1 (from UniProt Q61644 1-441)”, the total ion current (normalized to TIA1 = 1000) in assay [1] came to 0; in assay [2], 70.2; in assay [3] it was 18.4; in assay [4], 0; in assay [5], 31.2; in assay [6] it was 0.
On to “Protein kinase C epsilon type (from UniProt P16054 1-737)”, for which the total ion current (normalized to TIA1 = 1000) in assay [1] worked out at 0; in assay [2], 78.7; in assay [3] it was 0; in assay [4], 0; in assay [5], 0; in assay [6] it was 0.
As for “Protein kinase C gamma type (from UniProt P63318 1-697)”, the total ion current (normalized to TIA1 = 1000) in assay [1] was 39.3; in assay [2], 0; in assay [3] it was 0; in assay [4], 30.3; in assay [5] it was 0; in assay [6], 0.
As to “Puromycin-sensitive aminopeptidase (from UniProt Q11011 1-920)”, the total ion current (normalized to TIA1 = 1000) turned out to be 0 in assay [1]; 0 in assay [2]; 49.8 in assay [3]; 0 in assay [4]; 0 in assay [5]; 0 in assay [6].
In the case of “Putative adenosylhomocysteinase 3 (from UniProt Q68FL4 2-613)”, the total ion current (normalized to TIA1 = 1000) in assay [1] is 2.62; in assay [2] it was 76.3; in assay [3], 45.1; in assay [4] it was 8.48; in assay [5] it was 72.5; in assay [6] it was 0.
Consider “Pyridoxal kinase (from UniProt Q8K183 1-312)”, for which the total ion current (normalized to TIA1 = 1000) came to 0 in assay [1]; 80.3 in assay [2]; 0 in assay [3]; 0 in assay [4]; 104 in assay [5]; 0 in assay [6].
Take “Pyruvate dehydrogenase E1 component subunit beta, mitochondrial (from UniProt Q9D051 31-359)”: the total ion current (normalized to TIA1 = 1000) in assay [1] is 0; in assay [2], 60.4; in assay [3] it was 95.5; in assay [4] it was 0; in assay [5] it was 51; in assay [6], 0.
